Assay results from article doi:10.1101/2025.05.03.651265.

Columns and labels:
[1] = biological target: E2CTD, C-terminal toxin domain of the GA1 T6SS effector E2 from Parabacteroides sp. D25 (Parabacteroides sp. D25); assay: ITC; conditions: natural protein
[2] = biological target: E2CTD, C-terminal toxin domain of the GA1 T6SS effector E2 from Parabacteroides sp. D25 (Parabacteroides sp. D25); assay: SEC-MALS; co-purified E2CTD-I2 complex at 2 mg/ml, Superdex 200 Increase 10/300, MiniDAWN detector and Optilab

Question: For “I2^BU, divergent cognate I2 protein from B. uniformis 82G1”, which Kd [1] is on record?
Answer: Its Kd is 18 nM.

Question: Which Kd [1] does the source give for “I2^PV, divergent cognate I2 protein from P. vulgatus AF31-3” here?
Answer: The Kd was 5.2 nM.

Question: “cognate I2 immunity protein from Parabacteroides sp. D25, expressed and purified alone” was tested. Which Kd [1] did it give?
Answer: Its Kd is 27 nM.

Question: How did the stoichiometry N [2] turn out when “cognate I2 immunity protein from Parabacteroides sp. D25, untagged, co-expressed with E2CTD (natural protein)” was run?
Answer: The stoichiometry N was 1.
